The DeepSol protein solubility set

Assay: soluble on expression in E. coli; label from the status in PepcDB or PDB records

Sequence | soluble on expression in E. coli
VTYEEEAVPAPVRGRLEVLSDLLYVASPDRAMVFTRTKAETEEIAQGLLRLGHPAQALHGDMSQGERERVMGAFRQGEVRVLVATDVAARGLDIPQVDLVVHYRMPDRAEAYQHRSGRTGRAGRGGRVVLLYGPRERRDVEALERAVGRRFKRVNPPTPEEVLEAKWRHLLARLARVPEKDYRLYQDFAGRLFAEGRVEVVAALLALLLGGAPAERSLLTGEEGWRTYKATGPRLSLPRLVALLKGQGLEVGKVAEAEGGFYVDLRPEARPEVAGLRLEPARRVEGLLEIPSRTRRPARA | soluble
VVSIVDTLMFDTGRAEVKPDFQKKLVEIGEILKTIDNYIRIEGHTDNTPISNSQYASNIELGSARSNNVEHLFIDVSKIPVTQMYTVSYADTRPVADNNSEAGKARNRRVDIVILNSKFNAVEQESSGK | not soluble
VWVSENIERLIGYTPGEALAPGWWLSHLYPDDREQVLERQPILLSDGQLTHDYRFYHRDGRIIWILDELRLIRNADGQPHEVVGTWLDIS | not soluble
WAALHEGLNIRQAEVHGMSQRGGAVQSHLRISDQELFADLIGLGTGDLILSVEPLEALRYLPYLAPDGRIVTSLDPFVNMTGYPPMEEIEAELGKTGRPVLVHAADLAKDAGSARASNMVMLGAGAPFAGIAPSKLEASIEALFSTKGQEVVDINIRAFRKGLQL | not soluble
WAIFVEQSDGHYRVRLRSKSHIINEIAKRHNGGGHPLASGANSYSLEENQAIYQ | soluble
WCAETAPEPQVEPEPEVLPEPDRGSATPAELGINSLDIVRLANRIEDATGTRPSLATLLNQPWQESLAMVEVLEPRPALASEQKPELVPDRDREVIDVVGAGMALGARIRAEVPISEEPVEDQFVQVGQWLKQLRAVVEPAGCMQVTPPSGNILCAIDITPGEKADVSDHAPLTPLQLGYLVGRADTWLGEPVAPHYYTEVEVADLDVVALQRALDEVVRAHPALMLGVHDDGNQGLSEALRPRLVVTDLRDHPDPDGELERIRAVGCAGVSDPLGTAWFQLRATLLPTAVR | not soluble
YGHNELPAEEGKSLWELVIEQFEDLLVRILLLAACISFVLAW | soluble
YHLSLKQVNRLFDDDMVDFGEAALRLLDLATEDQAGEDGSITEIIERSREAIQGLPLLRRESALGYALWRDGQPLLSSLNLPPEITAQGPGFSTVEAQGTHWRVLQLNIDGFQIWISENLIYRQHTMNLL | not soluble
YLYLEITNRCNLKCEMCFKQYWEDKEGDMDWDLFLKILDDAKEFPELKMIYFGGIGEPSVHPRFMDMVREVKRRGFRLGMSTNGVLLEDKILEEFVKLGVDVVYFSMDAIPTPSNIVTLGHITSKVVESRIKKLVELKKRYKTEKPTIGVEVVATKENYKQLPEMAIYLRNLGVDSMLISNLIPMTKEH | not soluble
YQPNYFLSIPITNKKITAGIKVLQNSILRQDNRLTKAMVGDGSFHITLLVMQLLNEDEVNIGTDALLELKPFVEEILEGKHLTLPFHGIGTFQGQVGFVKLADGDHVSALLEIAETAKRTFQEKGILAGESRTFKPHLTFMKLSKAPMLWKKGVRKIEPGLYEQFIDHRFGEEILYQIDLCSMLKKKQSNGYYHCESSIVIGEKD | soluble
YRALFEHAIDGIFIMDAEGHYLDVNPAICSAIGYTRDEFLALDWGVLSRGVDSGWAAASLARIVGGEPLREERTVWTRNGDQLTVELSAHLLPDGKILGIARDVS | soluble
